Experimental data: the MegaScale stability set (Tsuboyama et al. 2023)

B1: HEEH_KT_rd6_0790 (parent)
chain: SEEEEEEWRRAKERGEEIIILGILWKPNDEEAERRIKEALRRV

Variants of: B1
Experiment: folding stability dG (cDNA display proteolysis); higher = more stable
Conditions: PBS, room temperature

Folding stability dG [kcal/mol], by site and new letter:
I36: H 0.809; S 0.815; Y 1.02; T 1.06; R 0.952; V 2.01; M 1.39
V43: S 2.21; D 1.69; W 2.45; L 2.79; F 2.5; Y 2.38; M 2.48; E 2.08; C 2.36; I 2.31; T 1.88; A 2.38; H 2.45; G 1.84; R 2.75; P 1.84; N 1.86; Q 2.26; K 2.59
A39: K 1.79; P 0.322; I 1.81; D 0.764; M 2.1; C 2.06; H 1.38; L 2.06; S 1.26; T 1.31; Q 1.6; N 1.01; R 1.88; E 1.53; F 1.69; V 1.6; W 1.7; Y 1.56; G 1.32
E33: I 1.49; N 1.61; H 1.3; V 1.52; W 1.99; R 1.29; K 1.09; L 1.7; P 0.529; Q 1.31; S 1.68; G 1.49; A 1.72; Y 1.71; M 1.7; F 1.66; D 2.01; T 1.98
A32: G 1.2; K 0.96; I 1.39; F 0.917; Y 1.07; H 0.931; Q 1.07; L 1.41; M 1.26; V 1.37; D 0.955; T 1.55; W 1.02; R 1.12; P 0.466; E 1.25; S 1.96; N 1.02
E38: K 1.34; P 1.11
